The results in this text go back to PMC6436931, “Activation of the Endonuclease that Defines mRNA 3′ Ends Requires Incorporation into an 8-Subunit Core Cleavage and Polyadenylation Factor Complex” (Molecular Cell, 2019).

Data set [1] deals with Cft1;Pfs2;Yth1;Fip1;Pap1;Cft2;Ysh1;Mpe1 (Saccharomyces cerevisiae;Saccharomyces …, UniProt Q06632;P42841;Q06102;P45976;P29468;Q12102;Q06224;P35728 …, |||||||). The experiment in a line: EMSA; CPFcore; EMSA: 50 nM RNA, 0.25-4.0 uM protein, protein diluted in 10 mM HEPES pH 7.9, 150 mM NaCl, 0.5 mM Mg(OAc)2, plus 1x loading dye (orange G, glycerol, EDTA); 30 min on ice; native 6% acrylamide/TBE PAGE. Particulars: tags: ;3C-SII;3C-8H, untagged in CPFpol+Cft2;;SII (Pap1-SII) when alone, untagged in CPFpol and CPFcore;SII (Cft2-SII) when alone, untagged in CPFpol+Cft2 and CPFcore;;3C-SII (C-terminal) in Ysh1-Mpe1 complexes, copies: 1;2;1;1;1;1;1;1, label: 5'-FAM. Background: In EMSA bound probe runs differently from free probe, usually more slowly.

For data set [2], the target named is Pcf11;Clp1 (Saccharomyces cerevisiae;Saccharomyces …, UniProt P39081;Q08685 1-626;1-445, |). As to the kind of experiment: EMSA; EMSA: 50 nM RNA, 0.25-4.0 uM protein, protein diluted in 10 mM HEPES pH 7.9, 150 mM NaCl, 0.5 mM Mg(OAc)2, plus 1x loading dye (orange G, glycerol, EDTA); 30 min on ice; native 6% acrylamide/TBE PAGE. The conditions noted are these: protein: recombinant;recombinant; tags: 6H;; copies: 1;1; label: 5'-FAM.

Data set [3] addresses Rna14;Rna15;Pcf11;Clp1 (Saccharomyces cerevisiae;Saccharomyces …, UniProt P25298;P25299;P39081;Q08685 1-677;1-296;1-626;1-445, |||). As to the kind of experiment: EMSA; CF IA; EMSA: 50 nM RNA, 0.25-4.0 uM protein, protein diluted in 10 mM HEPES pH 7.9, 150 mM NaCl, 0.5 mM Mg(OAc)2, plus 1x loading dye (orange G, glycerol, EDTA); 30 min on ice; native 6% acrylamide/TBE PAGE. Particulars: protein: recombinant;recombinant;recombinant;recombinant; tags: 6H;;6H;; chain copies: 2;2;1;1; label: 5'-FAM.

The target of data set [4] is Ysh1;Mpe1;Yjr141w (Saccharomyces cerevisiae;Saccharomyces …, UniProt Q06224;P35728;P47172 1-779;1-441;1-347, ||). As to the kind of experiment: EMSA; EMSA: 50 nM RNA, 0.25-4.0 uM protein, protein diluted in 10 mM HEPES pH 7.9, 150 mM NaCl, 0.5 mM Mg(OAc)2, plus 1x loading dye (orange G, glycerol, EDTA); 30 min on ice; native 6% acrylamide/TBE PAGE. The conditions noted are these: protein: recombinant;recombinant;recombinant; tags: ;3C-SII (C-terminal) in Ysh1-Mpe1 complexes; untagged in CPFcore;SII-3C (N-terminal) in Ysh1-Yjr141w; untagged in Ysh1-Mpe1-Yjr141w; copies: 1;1;1; label: 5'-FAM.

In data set [5] the target is Cft1;Pfs2;Yth1;Fip1 (Saccharomyces cerevisiae;Saccharomyces …, UniProt Q06632;P42841;Q06102;P45976 1-1357;1-465;1-208;1-327, |||). As to the kind of experiment: EMSA; CPFpol (no Pap1); EMSA: 50 nM RNA, 0.25-4.0 uM protein, protein diluted in 10 mM HEPES pH 7.9, 150 mM NaCl, 0.5 mM Mg(OAc)2, plus 1x loading dye (orange G, glycerol, EDTA); 30 min on ice; native 6% acrylamide/TBE PAGE. Particulars: protein: recombinant;recombinant;recombinant;recombinant; tags: ;3C-SII;3C-8H; untagged in CPFpol+Cft2;; copies: 1;2;1;1; label: 5'-FAM.
Cft1;Pfs2;Yth1;Fip1, sequence (Q06632 whole entry, chain 1 of 4): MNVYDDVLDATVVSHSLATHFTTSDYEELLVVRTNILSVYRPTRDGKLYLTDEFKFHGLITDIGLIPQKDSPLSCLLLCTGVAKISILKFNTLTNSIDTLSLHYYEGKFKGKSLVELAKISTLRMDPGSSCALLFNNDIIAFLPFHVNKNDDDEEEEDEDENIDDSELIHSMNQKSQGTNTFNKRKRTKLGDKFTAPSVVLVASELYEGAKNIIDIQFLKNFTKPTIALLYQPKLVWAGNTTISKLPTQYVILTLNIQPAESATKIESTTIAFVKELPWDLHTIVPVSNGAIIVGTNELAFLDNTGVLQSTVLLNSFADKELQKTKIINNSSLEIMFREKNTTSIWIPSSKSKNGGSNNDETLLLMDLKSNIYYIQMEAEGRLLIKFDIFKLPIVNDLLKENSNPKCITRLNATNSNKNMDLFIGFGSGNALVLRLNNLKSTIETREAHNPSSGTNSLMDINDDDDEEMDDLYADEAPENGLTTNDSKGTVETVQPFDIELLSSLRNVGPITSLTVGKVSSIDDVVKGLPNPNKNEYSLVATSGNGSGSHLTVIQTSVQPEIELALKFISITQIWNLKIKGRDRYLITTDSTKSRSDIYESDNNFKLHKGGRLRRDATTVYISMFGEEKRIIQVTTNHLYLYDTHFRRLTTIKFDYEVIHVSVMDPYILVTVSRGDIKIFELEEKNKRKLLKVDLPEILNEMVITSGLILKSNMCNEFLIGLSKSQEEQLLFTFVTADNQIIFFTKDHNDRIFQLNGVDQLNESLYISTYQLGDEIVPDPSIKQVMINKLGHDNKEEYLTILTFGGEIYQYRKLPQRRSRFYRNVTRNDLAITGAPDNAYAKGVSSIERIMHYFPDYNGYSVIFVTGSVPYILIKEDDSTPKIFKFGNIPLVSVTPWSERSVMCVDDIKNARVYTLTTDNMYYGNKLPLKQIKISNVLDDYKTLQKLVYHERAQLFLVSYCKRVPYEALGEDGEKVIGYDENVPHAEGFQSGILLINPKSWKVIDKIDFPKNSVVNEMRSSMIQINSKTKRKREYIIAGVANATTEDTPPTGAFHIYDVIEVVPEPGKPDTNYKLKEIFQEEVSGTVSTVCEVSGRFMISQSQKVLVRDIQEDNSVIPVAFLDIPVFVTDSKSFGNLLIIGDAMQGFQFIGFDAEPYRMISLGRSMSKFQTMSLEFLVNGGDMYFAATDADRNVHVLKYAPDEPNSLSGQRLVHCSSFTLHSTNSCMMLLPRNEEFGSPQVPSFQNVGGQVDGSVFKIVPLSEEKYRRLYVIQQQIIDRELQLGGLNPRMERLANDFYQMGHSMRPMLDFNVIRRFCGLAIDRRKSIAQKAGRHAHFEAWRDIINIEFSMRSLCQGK
Cft1;Pfs2;Yth1;Fip1, sequence (P42841 whole entry, chain 2 of 4): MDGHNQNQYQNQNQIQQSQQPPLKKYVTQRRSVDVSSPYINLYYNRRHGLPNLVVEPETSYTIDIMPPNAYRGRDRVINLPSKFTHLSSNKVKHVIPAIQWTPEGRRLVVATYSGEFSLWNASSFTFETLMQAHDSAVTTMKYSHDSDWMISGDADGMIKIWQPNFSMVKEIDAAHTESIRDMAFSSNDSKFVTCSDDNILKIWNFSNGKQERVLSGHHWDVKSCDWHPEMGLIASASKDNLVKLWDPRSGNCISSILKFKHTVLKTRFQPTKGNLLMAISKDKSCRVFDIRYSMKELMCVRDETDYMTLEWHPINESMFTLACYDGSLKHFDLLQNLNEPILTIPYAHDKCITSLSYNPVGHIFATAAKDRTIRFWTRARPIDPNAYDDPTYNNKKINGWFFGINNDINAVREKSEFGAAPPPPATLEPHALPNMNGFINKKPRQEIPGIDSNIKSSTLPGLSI
Cft1;Pfs2;Yth1;Fip1, sequence (Q06102 whole entry, chain 3 of 4): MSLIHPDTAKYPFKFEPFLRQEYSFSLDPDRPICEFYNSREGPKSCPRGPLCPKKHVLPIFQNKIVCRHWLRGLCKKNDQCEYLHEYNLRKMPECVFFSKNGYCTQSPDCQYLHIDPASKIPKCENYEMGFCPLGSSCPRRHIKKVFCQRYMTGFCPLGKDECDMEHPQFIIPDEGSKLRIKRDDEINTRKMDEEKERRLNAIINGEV
Cft1;Pfs2;Yth1;Fip1, sequence (P45976 whole entry, chain 4 of 4): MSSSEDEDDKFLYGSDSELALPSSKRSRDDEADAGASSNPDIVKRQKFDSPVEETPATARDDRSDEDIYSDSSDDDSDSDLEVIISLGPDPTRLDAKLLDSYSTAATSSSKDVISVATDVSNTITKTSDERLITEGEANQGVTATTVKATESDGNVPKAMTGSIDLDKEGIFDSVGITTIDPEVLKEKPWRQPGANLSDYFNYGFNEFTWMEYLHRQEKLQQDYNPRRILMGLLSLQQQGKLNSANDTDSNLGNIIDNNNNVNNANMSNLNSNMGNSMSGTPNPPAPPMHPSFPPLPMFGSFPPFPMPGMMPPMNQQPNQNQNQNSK

Pcf11;Clp1, sequence (P39081 whole entry, chain 1 of 2): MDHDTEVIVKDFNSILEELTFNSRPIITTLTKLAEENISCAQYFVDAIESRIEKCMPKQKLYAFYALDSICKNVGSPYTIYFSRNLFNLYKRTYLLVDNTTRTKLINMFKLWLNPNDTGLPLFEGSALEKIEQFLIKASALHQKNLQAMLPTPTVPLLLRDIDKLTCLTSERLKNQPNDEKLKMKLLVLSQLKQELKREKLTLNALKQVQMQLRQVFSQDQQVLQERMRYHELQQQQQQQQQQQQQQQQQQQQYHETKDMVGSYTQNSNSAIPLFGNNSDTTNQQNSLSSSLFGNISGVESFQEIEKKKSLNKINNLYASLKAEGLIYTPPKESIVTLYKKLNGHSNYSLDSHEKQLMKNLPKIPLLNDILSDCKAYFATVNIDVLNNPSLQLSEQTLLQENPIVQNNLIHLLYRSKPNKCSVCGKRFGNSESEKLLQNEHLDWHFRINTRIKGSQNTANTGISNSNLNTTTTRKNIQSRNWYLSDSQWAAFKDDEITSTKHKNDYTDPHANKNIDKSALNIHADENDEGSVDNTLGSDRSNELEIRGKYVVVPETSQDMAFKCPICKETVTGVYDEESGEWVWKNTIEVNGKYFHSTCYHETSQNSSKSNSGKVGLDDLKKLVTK
Pcf11;Clp1, sequence (Q08685 whole entry, chain 2 of 2): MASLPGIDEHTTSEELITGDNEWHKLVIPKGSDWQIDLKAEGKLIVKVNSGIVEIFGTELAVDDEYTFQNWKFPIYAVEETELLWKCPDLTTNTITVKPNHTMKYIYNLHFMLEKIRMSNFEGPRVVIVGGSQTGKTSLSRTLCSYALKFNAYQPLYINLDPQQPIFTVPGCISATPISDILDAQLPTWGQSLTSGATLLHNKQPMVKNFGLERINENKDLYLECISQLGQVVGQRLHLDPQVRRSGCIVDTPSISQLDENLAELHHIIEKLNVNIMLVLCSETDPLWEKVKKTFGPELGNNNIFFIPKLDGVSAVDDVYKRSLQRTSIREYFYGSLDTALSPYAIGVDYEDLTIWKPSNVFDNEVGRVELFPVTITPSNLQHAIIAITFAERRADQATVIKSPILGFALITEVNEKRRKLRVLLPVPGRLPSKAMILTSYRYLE
Rna14;Rna15;Pcf11;Clp1, sequence (P25298 whole entry, chain 1 of 4): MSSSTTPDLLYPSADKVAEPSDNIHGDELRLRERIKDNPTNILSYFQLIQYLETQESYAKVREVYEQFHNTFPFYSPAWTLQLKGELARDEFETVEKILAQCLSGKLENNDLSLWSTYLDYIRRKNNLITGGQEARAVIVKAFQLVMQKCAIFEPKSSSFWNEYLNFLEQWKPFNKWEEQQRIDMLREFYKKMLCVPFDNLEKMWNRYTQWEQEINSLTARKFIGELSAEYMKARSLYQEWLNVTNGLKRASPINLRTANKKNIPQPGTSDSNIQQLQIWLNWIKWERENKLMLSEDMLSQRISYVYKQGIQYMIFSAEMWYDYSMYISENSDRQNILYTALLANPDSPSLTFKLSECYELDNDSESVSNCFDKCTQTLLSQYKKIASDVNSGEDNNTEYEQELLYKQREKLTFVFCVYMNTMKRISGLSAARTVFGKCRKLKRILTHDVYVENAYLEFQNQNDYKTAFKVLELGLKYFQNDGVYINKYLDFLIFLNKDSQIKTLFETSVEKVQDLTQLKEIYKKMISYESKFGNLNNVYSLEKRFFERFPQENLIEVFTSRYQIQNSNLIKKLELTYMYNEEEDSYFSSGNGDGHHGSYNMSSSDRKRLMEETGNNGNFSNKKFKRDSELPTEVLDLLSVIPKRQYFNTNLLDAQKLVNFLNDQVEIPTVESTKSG
Rna14;Rna15;Pcf11;Clp1, sequence (P25299 whole entry, chain 2 of 4): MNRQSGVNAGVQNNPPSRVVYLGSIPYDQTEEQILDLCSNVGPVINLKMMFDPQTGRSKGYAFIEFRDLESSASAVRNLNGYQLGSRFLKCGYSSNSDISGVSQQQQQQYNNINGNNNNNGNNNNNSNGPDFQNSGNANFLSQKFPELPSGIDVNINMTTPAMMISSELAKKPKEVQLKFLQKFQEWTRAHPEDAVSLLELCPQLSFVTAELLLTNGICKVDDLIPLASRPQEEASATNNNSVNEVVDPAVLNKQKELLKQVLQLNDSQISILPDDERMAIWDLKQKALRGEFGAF
Rna14;Rna15;Pcf11;Clp1, sequence (P39081 whole entry, chain 3 of 4): as the sequence (P39081 whole entry, chain 1 of 2) above
Rna14;Rna15;Pcf11;Clp1, sequence (Q08685 whole entry, chain 4 of 4): as the sequence (Q08685 whole entry, chain 2 of 2) above

B1: CYC1f EMSA probe (ssRNA)
RNA: CGUUAUUUAUAUUUCAAAUUUUUCU
Take B1: the binding result in data set [1], in data set [2] and in data set [3] was “binds” each time.

B2: G15 (ssRNA)
RNA: GGGGGGGGGGGGGGG
As for B2, the binding result in data set [1] was “binds”; in data set [2], “no binding”; in data set [4], “binds”; in data set [5], “binds”; in data set [3] it was “binds”.

B3: C15 (ssRNA)
RNA: CCCCCCCCCCCCCCC
Take B3: the binding result in data set [1], in data set [2], in data set [4], in data set [5] and in data set [3] was “no binding” each time.

B4: A15 (ssRNA)
RNA: AAAAAAAAAAAAAAA
Take B4: the binding result is on record as “binds” in data set [1]; “no binding” in data set [2]; “no binding” in data set [4]; “binds” in data set [5]; “no binding” in data set [3].

B5: U15 (ssRNA)
RNA: UUUUUUUUUUUUUUU
B5: the binding result in data set [1] was “no binding”; in data set [2], “no binding”; in data set [4] it was “no binding”; in data set [5], “no binding”; in data set [3], “binds”.

B6: CYC1d EMSA probe (ssRNA)
RNA: AAGAACGUUAUUUAUAUUUCAAAUUUUUCUUUUUU
Turning to B6, the binding result in data set [1], in data set [2], in data set [5] and in data set [3] was “binds” each time.
